The assay addresses human FcRn (human) (UniProt P55899). Put plainly: SPR (Biacore), pH 7.1; antibody captured on biot-IZ-hCD40L, soluble receptor as analyte. (In general: SPR reads the build-up and loss of mass on a sensor chip optically.)

Here are results for one substance from patent publication US20170051059A1.

As a reminder, the Kd is the constant that tells how readily two partners part at equilibrium.

UniProt P55899, sequence (P55899 24-297 limits assumed, chain 1 of 2): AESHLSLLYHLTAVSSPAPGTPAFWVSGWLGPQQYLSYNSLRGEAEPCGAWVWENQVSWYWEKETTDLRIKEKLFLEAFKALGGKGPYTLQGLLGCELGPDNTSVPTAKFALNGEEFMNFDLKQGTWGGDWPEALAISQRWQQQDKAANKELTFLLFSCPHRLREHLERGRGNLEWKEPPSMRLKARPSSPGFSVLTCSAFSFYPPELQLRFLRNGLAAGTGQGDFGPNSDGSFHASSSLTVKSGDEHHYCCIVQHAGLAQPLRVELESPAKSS
UniProt P55899, sequence (chain, as listed by the source limits assumed, chain 2 of 2): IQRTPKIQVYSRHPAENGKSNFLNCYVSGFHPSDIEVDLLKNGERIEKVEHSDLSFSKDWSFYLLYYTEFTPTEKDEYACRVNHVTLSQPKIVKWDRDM

On to 5c8-IgG1 (antibody), for which the Kd is over 5 µM.
